Experimental findings from patent US20160159910A1 (Genentech, published 2016) are described below.

Numbering of substitutions follows the chain as printed.

The target of assay [1] is T1, human B7-H4 (human, UniProt Q7Z7D3 29-282).
T1 construct: On stably transfected 293 cells (recombinant) or on MX-1 / SKBR3 tumor cells (endogenous); the cell is named under assay; also called huB7-H4; hB7-H4
T1 sequence: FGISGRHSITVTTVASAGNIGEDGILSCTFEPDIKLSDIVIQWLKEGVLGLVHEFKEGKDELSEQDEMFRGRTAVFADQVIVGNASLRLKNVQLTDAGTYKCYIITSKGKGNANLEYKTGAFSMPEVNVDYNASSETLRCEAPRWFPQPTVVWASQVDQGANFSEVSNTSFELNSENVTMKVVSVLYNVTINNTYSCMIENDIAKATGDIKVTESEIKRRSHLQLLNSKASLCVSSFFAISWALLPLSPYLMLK
The experiment in a line: FACS titration on 293 cells expressing recombinant human B7-H4 (panel '293-human B7-H4', lower block), Dylight-650 goat anti-human IgG, geometric mean fluorescence. Here is the method:
(§1) The fluorescent signal was acquired with a BD FACS Calibur and EC₅₀ values were determined with the Graph Pad program Prism 4.

For assay [2], the target named is T2, cynomolgus monkey B7-H4 (cynomolgus monkey, UniProt Q7Z7D3 29-282 (human entry)).
T2 construct: On stably transfected 293 cells; also called cyno B7-H4; recombinant cynomolgus monkey B7-H4
T2 chain: T1 sequence with L49I, F238L, S248A
The experiment in a line: FACS titration on 293 cells expressing recombinant cynomolgus B7-H4 (panel '293-cyno B7-H4', lower block), geometric mean fluorescence. On the procedure: as §1

Assay [3] deals with T1, human B7-H4. Nature of the assay: Scatchard analysis, 125I-antibody radioligand cell binding on MX-1 tumor cells. Here is the method: (§2) Competition assay mixtures of 50 μL volume containing a fixed concentration of [I¹²⁵] labeled antibody and decreasing concentrations of serially diluted, unlabeled antibody were placed into 96-well plates. […] Cells were detached from the flask using Sigma Cell Dissociation Solution and were washed with binding buffer, which consisted of Dulbecco's Modified Eagle Medium (DMEM) with 1% bovine serum albumin (BSA), […] and 0.1% sodium azide. The washed cells were added to the 96 well plates at a density of 100,000 cells in 0.2 mL of binding buffer. The final concentration of the [I¹²⁵] labeled antibody in each well was ˜250 pM. The final concentration of the unlabeled antibody in the competition assay ranged from 1000 nM through ten 2-fold dilution steps to a 0 nM buffer-only assay. Competition assays were carried out in triplicate. Competition assays were incubated for 2 hours at room temperature. After the 2-hour incubation, the competition assays were transferred to a Millipore Multiscreen filter plate (Billerica, Mass.) and washed 4 times with binding buffer to separate the free from bound [I¹²⁵] labeled antibody. The filters were counted on a Wallac Wizard 1470 gamma counter (PerkinElmer Life and Analytical Sciences Inc.; Wellesley, Mass.). The binding data was evaluated using NewLigand software (Genentech), which uses the fitting algorithm of Munson and Robard to determine the binding affinity of the antibody (Munson and Robard 1980).

In assay [4] the target is T3, mouse B7-H4 (mouse, UniProt Q7TSP5 29-283).
T3 construct: On stably transfected 293 cells; also called muB7-H4; recombinant mouse B7-H4
T3 sequence: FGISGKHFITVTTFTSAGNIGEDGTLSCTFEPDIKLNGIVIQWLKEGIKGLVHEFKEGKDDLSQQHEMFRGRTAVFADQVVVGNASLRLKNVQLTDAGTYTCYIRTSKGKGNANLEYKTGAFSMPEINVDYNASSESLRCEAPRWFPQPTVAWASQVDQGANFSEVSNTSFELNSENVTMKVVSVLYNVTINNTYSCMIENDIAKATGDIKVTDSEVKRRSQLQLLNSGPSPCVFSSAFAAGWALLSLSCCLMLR
The experiment in a line: FACS titration on 293 cells expressing recombinant mouse B7-H4 (panel '293-mouse B7-H4', lower block), geometric mean fluorescence. On the procedure:
as §1

In assay [5] the target is T1, human B7-H4. The experiment in a line: Scatchard analysis on MX-1 cells; the table puts the affinity of 8.3 nM beside the parent antibody's 7.8 nM. On the procedure: as §2, with “After the 2-hour incubation, the competition assays were transferred to a Millipore Multiscreen filter plate (Billerica, Mass.) and washed 4 times with binding buffer to separate the free from bound [I¹²⁵] labeled antibody.” left out

Assay [6] concerns the target T1, human B7-H4. Nature of the assay: FACS titration on MX-1 tumor cells, endogenous human B7-H4 (panel 'MX-1 tumor cell line', lower block), geometric mean fluorescence. On the procedure:
as §1

For assay [7], the target named is T1, human B7-H4. Nature of the assay: Scatchard analysis on MX-1 cells; the table puts the affinity of 8.7 nM beside the parent antibody's 7.8 nM. On the procedure:
as §2, with “After the 2-hour incubation, the competition assays were transferred to a Millipore Multiscreen filter plate (Billerica, Mass.) and washed 4 times with binding buffer to separate the free from bound [I¹²⁵] labeled antibody.” left out

Another assay concerns the target T4, rat B7-H4 (rat, UniProt Q501W4 29-282).
T4 construct: On stably transfected 293 cells; also called recombinant rat B7-H4
T4 sequence: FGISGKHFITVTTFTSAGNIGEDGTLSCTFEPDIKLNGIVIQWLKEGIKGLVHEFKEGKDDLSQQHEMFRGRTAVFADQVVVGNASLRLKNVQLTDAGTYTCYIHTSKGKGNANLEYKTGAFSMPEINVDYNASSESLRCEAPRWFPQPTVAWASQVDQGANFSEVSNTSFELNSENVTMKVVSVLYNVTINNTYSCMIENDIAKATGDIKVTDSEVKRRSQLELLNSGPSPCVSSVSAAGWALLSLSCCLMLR
The experiment in a line: Scatchard analysis, radioligand cell binding on 293 cells expressing recombinant B7-H4. Here is the method:
as §2

Assay [8] addresses T3, mouse B7-H4. Described as above. On the procedure: as §2
The target in assay [9] is T2, cynomolgus monkey B7-H4. The assay is described as above. On the procedure:
as §2

In assay [10] the target is T1, human B7-H4. The description is as above. On the procedure:
as §2

Assay [11] has as its target T1, human B7-H4. The experiment in a line: Scatchard analysis, radioligand cell binding on MX-1 cells (endogenous human B7-H4). On the procedure:
as §2, with “After the 2-hour incubation, the competition assays were transferred to a Millipore Multiscreen filter plate (Billerica, Mass.) and washed 4 times with binding buffer to separate the free from bound [I¹²⁵] labeled antibody.” left out

The target in assay [12] is T3, mouse B7-H4. The experiment in a line: FACS titration on 293 cells expressing recombinant mouse B7-H4 (panel '293-mouse B7-H4', upper block), geometric mean fluorescence. Here is the method: as §1
Assay [13] has as its target T1, human B7-H4. Nature of the assay: Scatchard analysis on MX-1 cells; the table puts the affinity of 10 nM beside the parent antibody's 4.9 nM. Here is the method:
as §2, with “After the 2-hour incubation, the competition assays were transferred to a Millipore Multiscreen filter plate (Billerica, Mass.) and washed 4 times with binding buffer to separate the free from bound [I¹²⁵] labeled antibody.” left out

The target of assay [14] is T2, cynomolgus monkey B7-H4. Nature of the assay: FACS titration on 293 cells expressing recombinant cynomolgus B7-H4 (panel '293-cyno B7-H4', upper block), geometric mean fluorescence. On the procedure:
as §1

Assay [15] deals with T1, human B7-H4. Nature of the assay: FACS titration on MX-1 tumor cells, endogenous human B7-H4 (panel 'MX-1 tumor cell line', upper block), geometric mean fluorescence. On the procedure:
as §1

For assay [16], the target named is T1, human B7-H4. The experiment in a line: FACS titration on 293 cells expressing recombinant human B7-H4 (panel '293-human B7-H4', upper block), Dylight-650 goat anti-human IgG, geometric mean fluorescence. Here is the method:
as §1

B1: humanized 1D11.v1.7 (antibody, V domains shown)
VH: EVQLVQSGAEVKKPGASVKVSCKASGYTFTSYWIGWVRQAPGQGLEWIGDIYPGGGYTNYNEKFKGRATLTRDTSTSTAYLELSSLRSEDTAVYYCARLDGSSYRGAMDSWGQGTLVTVSS
VL: DIQMTQSPSSLSASVGDRVTITCKASQGFNKYVAWYQQKPGKAPKLLIYYTSTLQPGVPSRFSGSGSGRDYTLTISSLQPEDFATYYCLQYGNLLYAFGQGTKVEIKR
notes: also called hu1D11.v1.7; h1D11.v1.7
In the case of B1, the EC50 with human B7-H4 [1] amounted to 0.66 µg/mL; with cynomolgus monkey B7-H4 [2], 0.68 µg/mL; with mouse B7-H4 [4], 0.45 µg/mL; with human B7-H4 [6], 0.34 µg/mL. The Kd with human B7-H4 [3] came to 8.3 nM. Besides, the “Fold to Parent mAb” value in the assay with human B7-H4 [5] came to 0.94.

B2: humanized 1D11.v1.8 (antibody, V domains shown)
VH: B1 VH with L70I
VL: B1 VL
notes: also called hu1D11.v1.8; h1D11.v1.8
Take B2: the half-maximal effective concentration (EC50) came out at 2.29 µg/mL in the assay with human B7-H4 [1], 0.18 µg/mL with cynomolgus monkey B7-H4 [2], 1.32 µg/mL with mouse B7-H4 [4] and 0.53 µg/mL in the assay with human B7-H4 [6]. Further, the Kd with human B7-H4 [3] was 8.7 nM. For the same molecule, the “Fold to Parent mAb” value with human B7-H4 [7] was 0.89.

B3: hu1D11.v1.9 varC2 (antibody, V domains shown)
VH: B1 VH with A68V, L70I, D100A
VL: B1 VL with N93D
notes: IgG1 / kappa; also called h1D11v1.9_VarC2; h1D11v1.9 variant C2
In the case of B3, the Kd with rat B7-H4 was determined as 1.2 nM; with mouse B7-H4 [8] it was 2.1 nM; with cynomolgus monkey B7-H4 [9] it was 1 nM; in the assay with human B7-H4 [10], 0.9 nM; with human B7-H4 [11], 2 nM.

B4: humanized 22C10.v2.8 (antibody, V domains shown)
VH: EVQLVQSGAEVKKPGASVKVSCKASGYTFTNFWIHWVRQAPGQGLEWIGEIDPSDSYTNYNQKFKGRVTITRDTSTSTAYLELSSLRSEDTAVYYCAREITTVDYWGQGTLVTVSS
VL: DIQMTQSPSSLSASVGDRVTITCSATSSISYMHWYQQKPGKAPKGLIYDTSKLAHGVPSRFSGSGSGTDFTLTISSLQPEDFATYYCHQRRSYPFTFGQGTKVEIK
notes: Assessed in the form of an IgG produced in 293 cells; also called hu22C10.v2.8; h22C10.v2.8
In the case of B4, the EC50 turned out to be 0.97 µg/mL with mouse B7-H4 [12], 1.19 µg/mL with cynomolgus monkey B7-H4 [14], 0.73 µg/mL with human B7-H4 [15] and 1.44 µg/mL with human B7-H4 [16]. Besides, the “Fold to Parent mAb” value with human B7-H4 [13] worked out at 0.49. Further, in the assay with human B7-H4 [3], the Kd was 10 nM.
